The text below walks through data of the nanobody polyreactivity screen of Harvey et al. (2022).

The data set can be described thus: yeast display, Sf9 membrane polyspecificity reagent, FACS + sequencing; frameworks hold sequencing errors. The essentials:
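Sorting gates, low and high (top ~1%), were placed on anti-HA fluorescence to track expression and on streptavidin fluorescence to track reagent binding. A clone's polyreactivity label is taken from the gate it came out of. The reagent was 10% biotinylated, detergent-solubilized Sf9 membrane, applied for 1 hour at 4 °C to galactose-induced yeast display cells.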
“QVQLVESGGGLVQAGGSLRLSCAASGSTFYYYTMGWYRQAPGKERELVAISWDGDSTYYADSVKGRFTISRDNAKNTVYLQMNSLKPEDTAVYYCAAADYYLPDDVSDYVDANFDYWGQGTQVTVSS”: the “polyreactivity (PSR sort gate)” value is recorded as “low polyreactivity”. As to “QVQLVESGGGLVQAGGSLRLSCAASGSTGFYGMGWYRQAPGKERELVAAITFRSGSTYYADSVKGRFTISRDNAKNTVYLQMNSLKPEDTAVYYCAAYSFNNGHRYDYWGQGTQVTVSS”, the “polyreactivity (PSR sort gate)” value is listed as “high polyreactivity”. On to “QVQLVESGGGLVQAGGSLRLSCAASGSTIDGYAMGWYRQAPRKERELVAAITFDGSSTYYADSVKGRFTISRDNAKNTVYLQMNSLKPEVTAVYYCAAASSYWVLWDDYWGQGTQVTVSS”, for which the “polyreactivity (PSR sort gate)” value is “low polyreactivity”.

On to “QVQLVESGGGLVQAGGSLRLSCAASGSTIDTYAMGWYRQAPGKERELVAGISWSGGSTFYADSVKGRFTISRDNAKNTVYLQMNSLKPEDTAVYYCAKQLWVGVKYDYWGQGTQVTVSS”, for which the “polyreactivity (PSR sort gate)” value is given as “low polyreactivity”. The same measure for “QVQLVESGGGLVQAGGSLRLSCAASGSTIEANAMGWYRQAPGKERELVAVNTWTGGSTYYADSVKGRFTISRDNAKNTVYLQMNSLKPEDTAVYYCAADGVVPGRFFWPAHEYDYWGQGTQVTVSS”: “low polyreactivity”; for “QVQLVESGGGLVQAGGSLRLSCAASGSTIFENVMGWYRQAPGKEREFVAAINTSGGSTYYADSVKGRFTISRDNAKYTVYLQMNSLKPEDTAVYYCARDSYWEMDYWGQGTQVNVSS”: “low polyreactivity”; for “QVQLVESGGGLVQAGGSLRLSCAASGSTIFFNAMGWYRQAPGKERELVAGISSSGGSTHYADSVKGRFTISRDNAKNTVYLQMNSLKPEDTAVYYCNAQQYLPSEGDYWGQGTQVTVSS”: “low polyreactivity”. Turning to “QVQLVESGGGLVQAGGSLRLSCAASGSTIFLYDMGWYRQAPGKESELVAAITISGGSTYYADSVKGRFTISRDNAKNTVDLQMNSLKPEDTAVYYCAADRQWISLFGYPDGYDYWGQGTQVTVSS”, the “polyreactivity (PSR sort gate)” value is listed as “high polyreactivity”. With “QVQLVESGGGLVQAGGSLRLSCAASGSTIGFYAMGWYRQAPGKERELVAANSWTGGGTYYADSVKGRFTISRDNAKITVYLQMNSLKPEDTAVYYCARLYYFNGDFWGQGTQVTVSS”, the “polyreactivity (PSR sort gate)” value was “high polyreactivity”.

As to “QVQLVESGGGLVQAGGSLRLSCAASGSTIGKNVMGWYRQAPGKEREVVAAISARGGRSYYADSVKGRFTISRDIAKNTVYLQMNSLKPEDTAVYYCNTERSYTGTGRYRSSTAYGYWGQGTQVTVSS”, the “polyreactivity (PSR sort gate)” value is “high polyreactivity”. In the case of “QVQLVESGGGLVQAGGSLRLSCAASGSTIISYAMGWYRQAPGKERELVAAISSGGGRTSYADSVKGRFTISRDNAKNTVYLQMNSLKPEDTAVYYCNTKQLPYAEGYWGQGTQVTVSS”, the “polyreactivity (PSR sort gate)” value is on record as “low polyreactivity”. Turning to “QVQLVESGGGLVQAGGSLRLSCAASGSTIKSNVLGWYRQAPGKERELVAAISSGDSTYYADSVKGRFTISRDNGKNTVYFQLNSLKPVDTAVFYCAARLGLQLVDTPDNDYWGQGTEVTVSS”, the “polyreactivity (PSR sort gate)” value is “low polyreactivity”.

With “QVQLVESGGGLVQAGGSLRLSCAASGSTILHYAMGWYRQAPGKEREFTYYADSVKGRFTISRDNAKNTVCLQMNSLTPEDTAVYYCNADPAVSGGSIATDEYDYWVQGTQVTVSS”, the “polyreactivity (PSR sort gate)” value is “low polyreactivity”.

Turning to “QVQLVESGGGLVQAGGSLRLSCAASGSTILINAMGWYRQAPGKERELVAAISRDGSTNYADSVKGRFTISRDNAKNTVYLQMNSLKPEDTAVYYCAAVPGISVGRQPGYDYDYWGQGTQVTVSS”, the “polyreactivity (PSR sort gate)” value is listed as “low polyreactivity”. For “QVQLVESGGGLVQAGGSLRLSCAASGSTIPLYAMGWYRQAPGKERELVAAISRRGGRTYYADSVKGRFTISRDNAKNTVYLQMNSLKPEDTAVYYCATAQGSRVDYWGQGTQVTVSS”, the “polyreactivity (PSR sort gate)” value is given as “high polyreactivity”. Take “QVQLVESGGGLVQAGGSLRLSCAASGSTIPYYAMGWYRQAPGKERELVARIRWNGDSTFYADSVKGRFTISRDNAKNTVYLQMNSLKTEDSAVYYCAAYGKRLGERLNYYYWGQGTQVTVSS”: the “polyreactivity (PSR sort gate)” value is given as “high polyreactivity”. Regarding “QVQLVESGGGLVQAGGSLRLSCAASGSTIQQYAMGWYRQAPGKEREFVAAISWRGGRTYYADSVKGRFTISRDNAKNTVSLQMNSLKPEDTAVYYCAVDPSIYRLSAYYYDYWGQGTQVTVSS”, the “polyreactivity (PSR sort gate)” value was “low polyreactivity”. In the case of “QVQLVESGGGLVQAGGSLRLSCAASGSTIRANAMGWYRQAPGKERELVAAITKNGGSTYYADSVKGRFTISRDNAKNTVYLQMNSLKPEDTAVYYCAARRSSRRPPYYYWGQGTQVTVSS”, the “polyreactivity (PSR sort gate)” value was “high polyreactivity”.

In the case of “QVQLVESGGGLVQAGGSLRLSCAASGSTIRDYAMGWYRQAPGKDRELVAVIDNSGGRTYYADSVKGRFTISRDNAKNTVYLQMNSLKPEDTAVYYCNTRRIAQYGYWGQGTQVTVSS”, the “polyreactivity (PSR sort gate)” value is recorded as “high polyreactivity”.

Take “QVQLVESGGGLVQAGGSLRLSCAASGSTIRHYAMGWYRQAPGKERELVAAISSGARTYYADSVKGRFTISRDNAKNTVYLQMNSLKPEDTAVYYCAARYNGYAYPYYYWGQGTQVTVSS”: the “polyreactivity (PSR sort gate)” value is recorded as “high polyreactivity”. Turning to “QVQLVESGGGLVQAGGSLRLSCAASGSTIRVNVMGWYRQAPGKERELVAAITTSGGSTYYADSVKGRFTISRDNAKNTVYLQMNSLKPEDTAVYYCNTTYPSGWGPDMDYWGQGTQVTVSS”, the “polyreactivity (PSR sort gate)” value is listed as “low polyreactivity”. As for “QVQLVESGGGLVQAGGSLRLSCAASGSTIRWYAMGWDRQAPGKERELVASITWSGGGTYYADSVKGRFTISRDNAKNTVYLQMNSLKPEDTAVYYCNRRTWRYETRGDDYWGQGTQVTVSS”, the “polyreactivity (PSR sort gate)” value is listed as “high polyreactivity”. In the case of “QVQLVESGGGLVQAGGSLRLSCAASGSTIRYYAMGWYRQAPGKERELVAAITKSGGSTYYADSVKGRFTISRDNAKKTVYLQMNSLKPEDTAVYYCAAVRRWYYPALSEHDYWGQGTQVTVSS”, the “polyreactivity (PSR sort gate)” value was “low polyreactivity”. As for “QVQLVESGGGLVQAGGSLRLSCAASGSTIRYYAMGWYRQAPGKERELVAAITKSGGSTYYADSVKGRFTISRDNAKNTVYLQMNSLKPEDTAVYYCAAVRRWYYPALSEHDYWGQGTQVTVSS”, the “polyreactivity (PSR sort gate)” value is “low polyreactivity”.

In the case of “QVQLVESGGGLVQAGGSLRLSCAASGSTISYYAMGWYRQAPGKERELVAGISGSTGTTYYADSVKGRFTISRDNAKNTVYLQMNSLKPEDTAVYYCAKLFPVARPQYGYWGQGTQVTVSS”, the “polyreactivity (PSR sort gate)” value is given as “low polyreactivity”. As for “QVQLVESGGGLVQAGGSLRLSCAASGSTITHNAMGWYRQAPGKERELVATISSGGSTNYADSVKGRFTISRDNAKNTVYLQMNRLKPEDTAVYYCAKPRYRSHVVYGPASGDDYWGQGTQVTVSS”, the “polyreactivity (PSR sort gate)” value is recorded as “low polyreactivity”. As for “QVQLVESGGGLVQAGGSLRLSCAASGSTITQYAMGWYRQAPGKEREFVAAINSRGDSTYYADSVKGRFTISRDNAKNTVYLQMNSLKPEDTAVYYCNADYQTDDDPYGYDYWGQGTQVTVSS”, the “polyreactivity (PSR sort gate)” value is recorded as “low polyreactivity”.

Take “QVQLVESGGGLVQAGGSLRLSCAASGSTIVDYAMGWYRQAPGKERELVAAITSGDSTNYADSVKGRFTISRDNAKNTVYLLMKSLKPEDTAVYYCAARLRYSFWYWDDYWGQGTQVSVSS”: the “polyreactivity (PSR sort gate)” value is “high polyreactivity”.

As for “QVQLVESGGGLVQAGGSLRLSCAASGSTIVRYAMGWNRQAPGKERELVAAISSRGGCTYYADSVKGRFTISRDNAKNTVYLQMNSLKPEDTAVYYCNADYSVGSWGQGTQVTVSS”, the “polyreactivity (PSR sort gate)” value is on record as “high polyreactivity”. Regarding “QVQLVESGGGLVQAGGSLRLSCAASGSTIVYNAMGWYRQAPGKEREFVAAISWSGGSTYYADSVKGRFTISRDNAKNTVYLQMNSLKPEDTAIYYCAATSRSNGFRYYYWGQGTQVTVSS”, the “polyreactivity (PSR sort gate)” value is given as “high polyreactivity”.
